Where no end group is shown, it is not given here.
Legend:
PTH1R [1] = molecular target: T1, PTH1R (Homo sapiens, UniProt Q03431); details: cited from earlier work
T1 sequence (Q03431 27-593): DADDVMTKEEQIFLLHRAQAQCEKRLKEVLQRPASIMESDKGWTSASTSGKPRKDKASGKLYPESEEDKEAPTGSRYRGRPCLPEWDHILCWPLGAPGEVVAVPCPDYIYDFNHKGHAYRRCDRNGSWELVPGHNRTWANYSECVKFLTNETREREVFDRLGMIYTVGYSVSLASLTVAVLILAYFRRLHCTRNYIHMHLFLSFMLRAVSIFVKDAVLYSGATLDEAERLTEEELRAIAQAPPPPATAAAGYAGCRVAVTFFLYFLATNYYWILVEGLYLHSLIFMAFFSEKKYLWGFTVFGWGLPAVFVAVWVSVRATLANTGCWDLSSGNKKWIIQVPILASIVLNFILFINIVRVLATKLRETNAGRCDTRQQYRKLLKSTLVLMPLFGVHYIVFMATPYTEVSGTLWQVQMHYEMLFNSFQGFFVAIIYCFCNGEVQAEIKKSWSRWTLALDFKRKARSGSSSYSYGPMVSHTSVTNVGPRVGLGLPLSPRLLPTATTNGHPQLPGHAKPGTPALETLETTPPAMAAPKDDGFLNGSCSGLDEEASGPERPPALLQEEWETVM

PTH1R [2] = molecular target: T1, PTH1R; details: cited from earlier work; remark: listed apart in the source
[3] = molecular target: T2, human PTH/PTHrP receptor (PTH1R) (human, UniProt Q03431 27-593); experiment: cell-based or functional assay
T2 sequence (looked up): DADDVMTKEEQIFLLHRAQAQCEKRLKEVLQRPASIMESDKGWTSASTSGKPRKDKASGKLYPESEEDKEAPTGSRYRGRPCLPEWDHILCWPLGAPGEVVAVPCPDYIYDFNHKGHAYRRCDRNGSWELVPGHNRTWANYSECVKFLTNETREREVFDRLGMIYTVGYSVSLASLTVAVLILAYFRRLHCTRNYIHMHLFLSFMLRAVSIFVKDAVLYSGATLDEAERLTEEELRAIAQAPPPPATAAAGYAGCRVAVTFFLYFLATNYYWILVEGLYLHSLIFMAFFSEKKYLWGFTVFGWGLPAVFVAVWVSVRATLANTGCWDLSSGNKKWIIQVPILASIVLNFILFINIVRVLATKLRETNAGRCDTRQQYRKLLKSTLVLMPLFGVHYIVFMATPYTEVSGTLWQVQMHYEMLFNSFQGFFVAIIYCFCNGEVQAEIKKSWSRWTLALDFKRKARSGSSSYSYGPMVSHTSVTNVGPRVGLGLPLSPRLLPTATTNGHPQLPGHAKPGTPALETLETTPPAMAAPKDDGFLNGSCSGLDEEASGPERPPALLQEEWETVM

[4] = molecular target: T2, human PTH/PTHrP receptor (PTH1R); experiment: cell-based or functional assay; remark: listed apart in the source
[5] = molecular target: T2, human PTH/PTHrP receptor (PTH1R); experiment: radioreceptor competition on HKrk-B7 cells
Method: (§1) Specific binding was determined after subtracting radioactivity bound in the presence of maximal concentrations of unlabeled competing peptide (10⁻⁶ M). Agonist-dependent stimulation of cAMP accumulation by HKrk-B7 and SaOS-2 cells (48-well plates; stimulation at room temperature for 45 minutes) and the subsequent measurement of cAMP by radioimmunoassay was performed as previously described (Gardella, T. J., et al., J. Biol. Chem. 271:19888-19893 (1996); Bergwitz, C., et al., Endocrinology 139:723-732 (1998)). Data were analyzed and graphically illustrated using the graph-pad prism software package.

[6] = molecular target: T2, human PTH/PTHrP receptor (PTH1R); experiment: radioreceptor competition on HKrk-B7 cells; either tracer
Method: as §1

[7] = molecular target: T2, human PTH/PTHrP receptor (PTH1R); experiment: radioreceptor competition on HKrk-B7 cells; tracer 125I-[Tyr36]PTHrP(1-36)amide
Method: (§2) Na¹²⁵I (specific activity: 2,000 Ci/mmol) was purchased from DuPont/NEN, Boston, Mass. Fetal bovine serum, 3-isobutyl-1-methyl-xanthine (IBMX), and BSA were from Sigma, St. Louis, Mo., and trifluoroacetic acid (TFA) was from Pierce, Rockford, Ill. […] After 4 h at 16° C., buffer was completely removed, the cells were rinsed with cold BB and lysed with 1 M NaOH. The entire lysate was counted for γ-irradiation. Specific binding was determined after subtracting radioactivity bound in the presence of maximal concentrations of unlabeled competing peptide (10⁻⁶ M). Agonist-dependent stimulation of cAMP accumulation by HKrk-B7 and SaOS-2 cells (48-well plates; stimulation at room temperature for 45 minutes) and the subsequent measurement of cAMP by radioimmunoassay was performed as previously described (Gardella, T. J., et al., J. Biol. Chem. 271:19888-19893 (1996); Bergwitz, C., et al., Endocrinology 139:723-732 (1998)). Data were analyzed and graphically illustrated using the graph-pad prism software package.

[8] = molecular target: T2, human PTH/PTHrP receptor (PTH1R); experiment: radioreceptor competition on HKrk-B7 cells; tracer 125I-rat [Nle8,21,Tyr34]PTH(1-34)amide
Method: as §2

Molecule: TIP(7-39): truncated TIP39 of Hoare et al., excluded from the claims (DAAFRERARLLAALERRHWLNSYMHKLLVLDAP; Tuberoinfundibular peptide of 39 residues; UniProt P0C171 68-100, looked up, fragment)
- inhibition of radioligand binding to the PTH1R (in words) (PTH1R [1]): efficiently inhibited radioligand binding
- agonist activity at the PTH1R (in words) (PTH1R [2]): no agonist activity

Molecule: [Leu^11, D-Trp^12, Trp^23, Tyr^36]PTHrP(7-36)amide (from UniProt P12272 43-72) (peptide)
- IC50 of inhibition of agonist-stimulated cAMP accumulation, HKrk-B7 cells [3]: 100 nM

B1: TIP(9-39) (peptide)
peptide: AFRERARLLAALERRHWLNSYMHKLLVLDAP
modifications: not fully specified (C-terminus)
notes: also called human TIP-(9-39)
- IC50 of inhibition of agonist-stimulated cAMP accumulation, HKrk-B7 cells (agonists PTH(1-34), PTHrP(1-36) or PTHrP(1-20)/TIP(23-39), 1 nM) [4]: 300 nM
- fold higher apparent binding affinity in comparison to the parent peptide TIP(1-39) [5]: ~5.5 fold
- fold improvement in apparent binding affinity relative to TIP(1-39) [6]: ≤ 6 fold
- IC50 [7]: 44 nM
- IC50 [8]: 39 nM

From US20040176285A1, “Tip39 polypeptides” (priority 2001, published 2004)
